Data from article PMC3664939, “Structure of the Catalytic Region of DNA Ligase IV in Complex with an Artemis Fragment Sheds Light on Double-Strand Break Repair” (Structure(London, England:1993), 2013).

Target: T1, DNA ligase IV catalytic region (residues 1–609) (human, UniProt P49917 1-609)
T1 construct: Cloned in pOPINS; whether the His6-Sumo tag was removed is told only in the Supplemental Experimental Procedures; the derivative crystals carry nine mercury atoms from thiomersal; the methods point to the recombinant construct for the crystals; also called catalytic region of LigIV
T1 sequence (looked up): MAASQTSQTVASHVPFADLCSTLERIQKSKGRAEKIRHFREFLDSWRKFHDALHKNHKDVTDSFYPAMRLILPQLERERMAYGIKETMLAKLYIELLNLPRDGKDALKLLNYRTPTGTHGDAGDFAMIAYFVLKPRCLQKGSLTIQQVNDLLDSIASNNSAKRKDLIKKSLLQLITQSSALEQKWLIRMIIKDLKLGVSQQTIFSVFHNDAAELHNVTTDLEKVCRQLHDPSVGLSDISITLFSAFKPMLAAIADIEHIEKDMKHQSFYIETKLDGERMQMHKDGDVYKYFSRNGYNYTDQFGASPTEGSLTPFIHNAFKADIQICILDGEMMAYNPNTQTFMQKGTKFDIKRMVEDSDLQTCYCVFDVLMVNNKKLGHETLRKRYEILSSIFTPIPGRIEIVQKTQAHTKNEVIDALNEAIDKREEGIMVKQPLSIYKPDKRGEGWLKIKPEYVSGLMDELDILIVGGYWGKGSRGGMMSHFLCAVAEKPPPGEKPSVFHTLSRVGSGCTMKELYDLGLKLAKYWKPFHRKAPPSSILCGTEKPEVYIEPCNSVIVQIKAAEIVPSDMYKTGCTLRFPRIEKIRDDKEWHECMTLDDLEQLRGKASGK
Assay: crystal structure; vapor diffusion, 100 mM MES (pH 5.6–5.7), 2.0 M (NH4)2SO4, 10 mM YCl3; native crystals and crystals soaked in 1 mM thiomersal
Settings: both partners purified

- binding result: binds
B1: Artemis peptide (residues 485–495) (peptide, UniProt Q96SD1 485-495, looked up)
peptide: DVPQWEVFFKR
notes: holds P487, W489, F492 and F493; also called Artemis fragment; source: synthetic peptide (PNAC facility, Department of Biochemistry, University of Cambridge)
